The supplement of paper PMC9876800

System: peptide library, one residue held at a place counted from the S/T acceptor
Experiment: relative phosphorylation of the sub-library (ratio to the mean residue at this position); human; higher = residue favoured
Conditions: L fixed; at -5
How it was run: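 In 384-well plates, purified recombinant kinases (human or orthologue constructs) were incubated for 90 min under kinase-specific conditions with 50 μM biotinylated degenerate peptide sub-libraries and 50 μM ATP spiked with γ-32P-ATP. Each sub-library fixed a single residue at one position around a central Ser/Thr. Relative sub-library phosphorylation, measured by phosphorimaging and densitometry of streptavidin membrane spots, is given as a ratio to the mean residue at that position.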

Chain of IKBKE, construct: Full length (Q14164 whole entry, looked up): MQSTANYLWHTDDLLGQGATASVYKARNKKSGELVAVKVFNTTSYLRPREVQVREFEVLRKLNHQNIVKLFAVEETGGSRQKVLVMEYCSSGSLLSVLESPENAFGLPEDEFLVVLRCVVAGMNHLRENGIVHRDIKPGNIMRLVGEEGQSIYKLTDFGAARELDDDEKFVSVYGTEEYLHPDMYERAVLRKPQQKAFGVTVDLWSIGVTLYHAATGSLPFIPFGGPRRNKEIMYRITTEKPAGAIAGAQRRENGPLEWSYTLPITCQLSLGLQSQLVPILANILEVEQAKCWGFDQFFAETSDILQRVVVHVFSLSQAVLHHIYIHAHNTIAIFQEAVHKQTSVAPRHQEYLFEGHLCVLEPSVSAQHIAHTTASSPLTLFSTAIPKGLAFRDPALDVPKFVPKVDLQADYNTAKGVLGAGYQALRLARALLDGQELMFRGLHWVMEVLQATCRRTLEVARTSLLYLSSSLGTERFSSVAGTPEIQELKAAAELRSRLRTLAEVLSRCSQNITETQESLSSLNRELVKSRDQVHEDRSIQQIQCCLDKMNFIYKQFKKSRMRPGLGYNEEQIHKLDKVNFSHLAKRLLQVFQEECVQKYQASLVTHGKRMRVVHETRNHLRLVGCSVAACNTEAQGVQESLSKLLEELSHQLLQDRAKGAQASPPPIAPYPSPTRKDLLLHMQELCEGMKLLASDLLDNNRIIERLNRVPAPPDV
Chain of NEK6, construct: Full length (Q9HC98 whole entry, looked up, the tested form may be a part): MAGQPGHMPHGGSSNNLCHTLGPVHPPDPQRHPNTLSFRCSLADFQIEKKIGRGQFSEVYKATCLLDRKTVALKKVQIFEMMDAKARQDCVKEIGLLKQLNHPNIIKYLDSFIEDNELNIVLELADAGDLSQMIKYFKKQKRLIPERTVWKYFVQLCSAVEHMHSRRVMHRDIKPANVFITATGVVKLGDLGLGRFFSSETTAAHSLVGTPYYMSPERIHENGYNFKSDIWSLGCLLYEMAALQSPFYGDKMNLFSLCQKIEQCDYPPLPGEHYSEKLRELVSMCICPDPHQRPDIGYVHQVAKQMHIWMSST
Chain of SIK3, construct: aa1-307 (Q9Y2K2 1-307, looked up): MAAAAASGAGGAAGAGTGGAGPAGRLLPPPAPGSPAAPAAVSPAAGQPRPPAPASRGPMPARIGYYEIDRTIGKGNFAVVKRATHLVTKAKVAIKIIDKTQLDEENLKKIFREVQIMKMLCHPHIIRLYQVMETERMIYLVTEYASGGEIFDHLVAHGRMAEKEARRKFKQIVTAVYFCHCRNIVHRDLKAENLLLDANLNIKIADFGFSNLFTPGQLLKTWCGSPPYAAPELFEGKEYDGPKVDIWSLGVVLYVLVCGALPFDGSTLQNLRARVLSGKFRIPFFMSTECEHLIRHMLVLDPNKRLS
Chain of SLK, construct: Full length (Q9H2G2 whole entry, looked up): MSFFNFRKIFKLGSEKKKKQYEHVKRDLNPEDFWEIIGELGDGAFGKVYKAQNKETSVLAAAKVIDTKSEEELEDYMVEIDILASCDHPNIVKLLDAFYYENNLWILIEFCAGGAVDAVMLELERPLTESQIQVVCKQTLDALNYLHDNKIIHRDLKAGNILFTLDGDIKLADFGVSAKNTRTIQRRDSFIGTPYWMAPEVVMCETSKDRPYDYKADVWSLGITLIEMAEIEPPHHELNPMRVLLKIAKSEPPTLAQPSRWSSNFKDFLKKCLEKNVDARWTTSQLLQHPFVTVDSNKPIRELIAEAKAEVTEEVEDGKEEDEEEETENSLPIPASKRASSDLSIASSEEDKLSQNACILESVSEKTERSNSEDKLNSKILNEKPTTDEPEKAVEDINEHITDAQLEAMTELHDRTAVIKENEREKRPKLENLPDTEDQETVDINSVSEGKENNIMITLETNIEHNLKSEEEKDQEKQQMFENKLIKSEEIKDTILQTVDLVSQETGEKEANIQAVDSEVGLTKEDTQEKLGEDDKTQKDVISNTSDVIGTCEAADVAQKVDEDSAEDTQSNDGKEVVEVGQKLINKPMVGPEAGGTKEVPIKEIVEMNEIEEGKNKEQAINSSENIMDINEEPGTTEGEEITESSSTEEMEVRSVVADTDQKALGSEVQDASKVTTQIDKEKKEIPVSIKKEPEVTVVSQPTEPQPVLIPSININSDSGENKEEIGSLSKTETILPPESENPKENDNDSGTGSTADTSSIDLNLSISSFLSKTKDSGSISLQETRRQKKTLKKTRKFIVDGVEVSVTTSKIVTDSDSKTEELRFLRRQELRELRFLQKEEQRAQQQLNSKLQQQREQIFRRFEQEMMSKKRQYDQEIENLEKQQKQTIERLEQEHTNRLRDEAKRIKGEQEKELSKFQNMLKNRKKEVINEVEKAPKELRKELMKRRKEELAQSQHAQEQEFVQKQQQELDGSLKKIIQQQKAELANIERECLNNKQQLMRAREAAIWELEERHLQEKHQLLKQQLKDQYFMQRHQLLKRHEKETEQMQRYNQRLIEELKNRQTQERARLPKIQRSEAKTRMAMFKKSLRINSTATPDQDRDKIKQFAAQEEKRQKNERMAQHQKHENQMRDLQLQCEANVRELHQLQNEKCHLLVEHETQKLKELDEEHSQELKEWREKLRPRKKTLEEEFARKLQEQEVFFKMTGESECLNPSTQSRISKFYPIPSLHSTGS
Chain of CDK10, construct: Full length (Q15131 whole entry, looked up): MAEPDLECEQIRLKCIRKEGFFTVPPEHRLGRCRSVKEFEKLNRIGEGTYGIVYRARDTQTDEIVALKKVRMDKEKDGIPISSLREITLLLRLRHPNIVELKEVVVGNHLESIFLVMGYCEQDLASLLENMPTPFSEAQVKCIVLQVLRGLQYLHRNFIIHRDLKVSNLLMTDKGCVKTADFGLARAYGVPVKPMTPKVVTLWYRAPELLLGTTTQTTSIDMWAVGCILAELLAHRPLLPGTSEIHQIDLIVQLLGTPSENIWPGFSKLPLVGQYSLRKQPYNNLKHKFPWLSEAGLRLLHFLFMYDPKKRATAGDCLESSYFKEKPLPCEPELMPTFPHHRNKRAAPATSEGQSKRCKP
Chain of TNIK, construct: aa1-314 (Q9UKE5 1-314, looked up): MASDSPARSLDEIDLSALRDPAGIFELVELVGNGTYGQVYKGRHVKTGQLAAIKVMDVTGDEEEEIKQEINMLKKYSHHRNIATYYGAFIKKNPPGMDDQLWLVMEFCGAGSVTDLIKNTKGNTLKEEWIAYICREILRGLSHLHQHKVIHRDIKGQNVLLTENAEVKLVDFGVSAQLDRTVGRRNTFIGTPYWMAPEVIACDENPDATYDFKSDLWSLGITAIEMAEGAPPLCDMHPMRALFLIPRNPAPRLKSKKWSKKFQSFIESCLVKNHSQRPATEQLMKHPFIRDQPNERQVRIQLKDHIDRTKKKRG
Chain of MAP4K5, construct: Full length (Q9Y4K4 whole entry, looked up): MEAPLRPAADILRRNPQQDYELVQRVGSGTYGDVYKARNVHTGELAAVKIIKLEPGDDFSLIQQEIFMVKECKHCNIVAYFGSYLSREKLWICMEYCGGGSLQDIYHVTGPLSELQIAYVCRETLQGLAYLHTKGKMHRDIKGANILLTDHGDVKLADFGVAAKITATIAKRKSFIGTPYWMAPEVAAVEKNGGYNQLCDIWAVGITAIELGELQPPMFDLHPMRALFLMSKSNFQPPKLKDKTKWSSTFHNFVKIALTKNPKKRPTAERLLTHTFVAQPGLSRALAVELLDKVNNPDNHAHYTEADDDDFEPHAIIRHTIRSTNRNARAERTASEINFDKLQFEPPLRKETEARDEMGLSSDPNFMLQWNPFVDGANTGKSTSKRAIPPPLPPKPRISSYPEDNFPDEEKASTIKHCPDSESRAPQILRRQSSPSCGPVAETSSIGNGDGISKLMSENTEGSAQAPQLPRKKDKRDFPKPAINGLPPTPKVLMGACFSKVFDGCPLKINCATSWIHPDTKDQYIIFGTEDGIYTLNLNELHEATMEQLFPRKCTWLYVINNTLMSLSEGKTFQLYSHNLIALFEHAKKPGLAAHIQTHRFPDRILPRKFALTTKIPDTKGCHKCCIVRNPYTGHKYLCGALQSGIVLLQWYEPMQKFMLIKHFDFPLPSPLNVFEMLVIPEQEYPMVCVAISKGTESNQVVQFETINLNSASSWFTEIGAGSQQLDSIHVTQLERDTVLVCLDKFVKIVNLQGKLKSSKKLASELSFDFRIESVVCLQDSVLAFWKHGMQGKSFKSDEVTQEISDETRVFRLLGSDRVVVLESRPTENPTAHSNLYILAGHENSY

Compared with “IKBKE, construct: Full length (from UniProt Q14164)”, “MAP4K5, construct: Full length (from UniProt Q9Y4K4)” is lower in relative phosphorylation: 0.753 for the first, 0.607 for the second.

First: NEK6, construct: Full length (from UniProt Q9HC98)
Second: SIK3, construct: aa1-307 (from UniProt Q9Y2K2)
The relative phosphorylation of the first is lower: 0.747 for the first, 1.58 for the second.

Going from “TNIK, construct: aa1-314 (from UniProt Q9UKE5)” to “SLK, construct: Full length (from UniProt Q9H2G2)”, the relative phosphorylation falls from 0.619 to 0.617.

“CDK10, construct: Full length (from UniProt Q15131)” was tested, and the relative phosphorylation was 0.78.

Same assay, conditions: M fixed; at +1

Compared with “PKN2, construct: aa501-984 (from UniProt Q16513)”, “IKBKE, construct: Full length (from UniProt Q14164)” is higher in relative phosphorylation: 1.84 for the first, 3.08 for the second.

First: MAP4K5, construct: Full length (from UniProt Q9Y4K4)
Second: NEK6, construct: Full length (from UniProt Q9HC98)
The relative phosphorylation of the first is higher: 2.8 for the first, 1.57 for the second.

First: SIK3, construct: aa1-307 (from UniProt Q9Y2K2)
Second: TNIK, construct: aa1-314 (from UniProt Q9UKE5)
The relative phosphorylation of the first is higher: 2.13 for the first, 1.98 for the second.

First: SLK, construct: Full length (from UniProt Q9H2G2)
Second: CDK10, construct: Full length (from UniProt Q15131)
The relative phosphorylation of the first is higher: 2.25 for the first, 0.32 for the second.

Same assay, conditions: M fixed; at +2

Compared with “PKN2, construct: aa501-984 (from UniProt Q16513)”, “IKBKE, construct: Full length (from UniProt Q14164)” is higher in relative phosphorylation: 0.788 for the first, 1.18 for the second.

Going from “MAP4K5, construct: Full length (from UniProt Q9Y4K4)” to “NEK6, construct: Full length (from UniProt Q9HC98)”, the relative phosphorylation falls from 0.797 to 0.747.

Going from “SIK3, construct: aa1-307 (from UniProt Q9Y2K2)” to “TNIK, construct: aa1-314 (from UniProt Q9UKE5)”, the relative phosphorylation falls from 1.08 to 0.806.

Going from “SLK, construct: Full length (from UniProt Q9H2G2)” to “CDK10, construct: Full length (from UniProt Q15131)”, the relative phosphorylation falls from 0.614 to 0.572.

Same assay, conditions: M fixed; at +3

Going from “PKN2, construct: aa501-984 (from UniProt Q16513)” to “IKBKE, construct: Full length (from UniProt Q14164)”, the relative phosphorylation rises from 0.839 to 1.11.

Going from “MAP4K5, construct: Full length (from UniProt Q9Y4K4)” to “NEK6, construct: Full length (from UniProt Q9HC98)”, the relative phosphorylation rises from 0.688 to 0.704.

Compared with “SIK3, construct: aa1-307 (from UniProt Q9Y2K2)”, “TNIK, construct: aa1-314 (from UniProt Q9UKE5)” is lower in relative phosphorylation: 0.759 for the first, 0.52 for the second.

First: SLK, construct: Full length (from UniProt Q9H2G2)
Second: CDK10, construct: Full length (from UniProt Q15131)
The relative phosphorylation of the first is lower: 0.61 for the first, 0.618 for the second.

Same assay, conditions: M fixed; at +4

Compared with “PKN2, construct: aa501-984 (from UniProt Q16513)”, “IKBKE, construct: Full length (from UniProt Q14164)” is higher in relative phosphorylation: 0.804 for the first, 1.03 for the second.

Going from “MAP4K5, construct: Full length (from UniProt Q9Y4K4)” to “NEK6, construct: Full length (from UniProt Q9HC98)”, the relative phosphorylation falls from 0.88 to 0.626.

Compared with “SIK3, construct: aa1-307 (from UniProt Q9Y2K2)”, “TNIK, construct: aa1-314 (from UniProt Q9UKE5)” is lower in relative phosphorylation: 1.55 for the first, 0.715 for the second.

Going from “SLK, construct: Full length (from UniProt Q9H2G2)” to “CDK10, construct: Full length (from UniProt Q15131)”, the relative phosphorylation falls from 0.801 to 0.638.

Same assay, conditions: M fixed; at -1

First: PKN2, construct: aa501-984 (from UniProt Q16513)
Second: IKBKE, construct: Full length (from UniProt Q14164)
The relative phosphorylation of the first is lower: 0.825 for the first, 1.28 for the second.

First: MAP4K5, construct: Full length (from UniProt Q9Y4K4)
Second: NEK6, construct: Full length (from UniProt Q9HC98)
The relative phosphorylation of the first is higher: 1 for the first, 0.859 for the second.
